Consider 24 sequences from the supplement of paper PMC9170038.

This data set concerns MS2 coat protein. Kind of data set: apparent KD of MS2 coat protein; designed switch direction (-1 OFF switch, 1 ON switch): -1; higher = weaker reporter binding. In a few lines:
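The reported apparent KD is a per-design median over clusters, from curve fits of normalised cluster fluorescence. Protein titrations used SNAP-549-labelled MS2 coat protein, doubled from 0.7 or 1.5 nM to 3 µM, in Tris-HCl pH 7.5 buffer with KCl, MgCl2, BSA, DTT, tRNA and Tween-20, with no input, 200 uM small-molecule ligand, or an oligonucleotide input. The RNA switches were transcribed on Illumina chips by stalled E. coli RNA polymerase.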

Where [1] appears, read: Eterna round: R95, input ligand: microRNA oligo, concentration not stated.
[2] abbreviates: input ligand: microRNA oligo, concentration not stated.
Where [3] appears, read: Eterna round: R95, input ligand: FMN 200 uM.
The mark [4] stands for this setting: Eterna round: R95, input ligand: none.

Regarding “UAUUCGCGAGGAUAUGCAGUCGAGUCCAUUACGUGUCUGGGACUUGAGGAUCACCCAAGUAGAAGGCGUCUCAG [salish99_ex2_r4_641] (Eterna round: R97, puzzle: Exclusion 2)”, the “apparent KD of MS2 coat protein” value is, setting by setting: (input ligand: FMN 200 uM) 160 nM; (input ligand: none) 194 nM.

“UAUUCUAGAUAGGAUAUACUUUAUUUUUUUUUCGUAGAAGGAUCUACAUGAGGAUCACCCAUGUUAACAGCAGU [JR_E6_Sub009] (puzzle: Exclusion 6)”: the “apparent KD of MS2 coat protein” value under setting [1] was found to be 50.5 nM. As to “UAUUCUGCGCUCGUCUUAUACAUGAGGAUCACCCAUGUUCUCAAGGUCUUAUGUACUGACACGAAAGUGUUAGUAAU [AK-miRNA-r3-3] (Eterna round: R97, puzzle: Sensor, turn-off variant 1)”, the “apparent KD of MS2 coat protein” value (input ligand: FMN 200 uM) was determined as 36.3 nM and the “apparent KD of MS2 coat protein” value (input ligand: none) is 41.6 nM. For “UAUUUAAGAGGAUAUACAUGAGGAUCACCCAUGUAAAAUAAAAUAGAUAAUUUUUUAUGUAGAAGGCUUGGGUA [-12.7, -11.42 kcal, A 39%] (Eterna round: R97, puzzle: Exclusion 3)”, the “apparent KD of MS2 coat protein” value is 38.5 nM (input ligand: FMN 200 uM) and 40 nM (input ligand: none). As for “UAUUUGCAAGCGAGAUCCCACAUGAGGAUCACCCAUGUGCUCGUCUUAUAAGGUACUGUGACGAAAGUCACGGUACC [Sensor 3, v1 - 91 v26] (Eterna round: R97, puzzle: Sensor, turn-off variant 1)”, the “apparent KD of MS2 coat protein” value is, setting by setting: (input ligand: FMN 200 uM) 16.5 nM; (input ligand: none) 13.7 nM. Take “UAUUUGUAAGGAUAUCUCGUCAUGGAGGAAACUCCAUGACGAGAGAAGGUACAUGAGGAUCACCCAUGUCUAUU [Mod of Fisker 23 - Jieux - Exclusion 4] (Eterna round: R97, puzzle: Exclusion 4)”: the “apparent KD of MS2 coat protein” value reads like this: (input ligand: FMN 200 uM) 26.2 nM; (input ligand: none) 18.6 nM.

As to “UAUUUGUGAGGAUAUGAGUCGUAGAACAAUAGUACUACGUCUCAGAAGGCACAUGAGGAUCACCCAUGUACCUC [Fiskers Ex 4 Super Stable 44 mod 30] (puzzle: Exclusion 4)”, the “apparent KD of MS2 coat protein” value under setting [1] came out at 16.9 nM.

With “UCAAGUAUGUAGGAUAUCGAUGUCGAAAGACAUCGAGAAGGACGUACAUGAGGAUCACCCAUGUAACUUGCAUG [Exclusion 6 - B - 10:f] (Eterna round: R96, puzzle: Exclusion 6)”, the “apparent KD of MS2 coat protein” value (input ligand: FMN 200 uM) is 159 nM, the “apparent KD of MS2 coat protein” value under setting [2] stood at 112 nM and the “apparent KD of MS2 coat protein” value (input ligand: none) is 220 nM. Turning to “UCAAGUAUGUAGGAUAUCGAUGUCGAAAGACAUCGAGAAGGACGUACAUGAGGAUCACCCAUGUAACUUGCAUG [Exclusion 6 - B - 10:f] (puzzle: Exclusion 6)”, the “apparent KD of MS2 coat protein” value runs as follows: under setting [3], 32.2 nM; under setting [1], 44.6 nM; under setting [4], 42.3 nM.

As to “UCACGGGACUAAGGAUAUAUGUGUACCAUUUUCAUAGAAGGUAGAAUGUUUGAUCAUAAACUAAACAUGAGGAUCACCCAUGUU [JR_ExcNG1_Sub091] (Eterna round: R96, puzzle: Exclusion NG 1)”, the “apparent KD of MS2 coat protein” value under setting [2] is 20.6 nM. For “UCACGGGACUGAGGAUAUACAUUUAUUAUUUUUGUAGAAGGCAGAAUGUUAGUUUUUUCACUAUACAUGAGGAUCACCCAUGUU [JR_ExcNG1_Sub084] (Eterna round: R96, puzzle: Exclusion NG 1)”, the “apparent KD of MS2 coat protein” value under setting [2] was 20.6 nM. Consider “UCAGAGCGAGGAUAUGCUGGUGUUAUUCACAUUUGUCCGCGACAUGAGGAUCACCCAUGUAGAAGGCGUAGCCA [Eternabot (L2) Solution 44] (Eterna round: R97, puzzle: Exclusion 2)”, for which the “apparent KD of MS2 coat protein” value was found to be 104 nM (input ligand: FMN 200 uM) and 76.9 nM (input ligand: none). In the case of “UCAGUGCUGCGAGGAUAUACAUGAGGAUCACCCAUGUAAAUGUGUGAGGCUUUGCCUCACACAAUGUAGAAGGCGCAGUACUGU [Mat - Exclusion NG 2 - Mod of JL - D3] (Eterna round: R96, puzzle: Exclusion NG 2)”, the “apparent KD of MS2 coat protein” value by setting is: (input ligand: FMN 200 uM) 17.2 nM; under setting [2], 11.1 nM; (input ligand: none) 14.3 nM. Turning to “UCAUGAUGAUAGGAUAUCGCGCGGUGAAAUGCGCGAGAAGGAUUAACAUGAGGAUCACCCAUGUUGGUCUGUUA [Eternabot (L2) Solution 69] (Eterna round: R97, puzzle: Exclusion 6)”, the “apparent KD of MS2 coat protein” value was 27.9 nM (input ligand: FMN 200 uM) and 15.3 nM (input ligand: none). On to “UCAUGGUAGCAGGAUAUGCUUGUAAUUUUUUAUGCAGAAGGGCUUACAUGAGGAUCACCCAUGUGUUAGGUCUA [JR_E6_Sub069] (puzzle: Exclusion 6)”, for which the “apparent KD of MS2 coat protein” value under setting [1] is 45.2 nM. As for “UCAUGUCCAGAGGAUAUGUAGCGGGAGACCGCAACAGAAGGCUGGACAUGAGGAUCACCCAUGUGCGCCUUCCA [jl-ex3-4.26 ViennaUCT mod] (Eterna round: R97, puzzle: Exclusion 6)”, the “apparent KD of MS2 coat protein” value (input ligand: FMN 200 uM) was determined as 21.8 nM and the “apparent KD of MS2 coat protein” value (input ligand: none) stood at 17 nM. Regarding “UCAUGUUUAGAGGAUAUGAUUACUCUAGAGUGAUCAGAAGGCUAGACAUGAGGAUCACCCAUGUCAGAACAUGC [Exclusion 6 - B - 17:b] (puzzle: Exclusion 6)”, the “apparent KD of MS2 coat protein” value came to 17.7 nM under setting [3], 24.7 nM under setting [1] and 31.9 nM under setting [4]. Regarding “UCAUGUUUAGAGGAUAUGAUUACUUUCGAGUAAUCAGAAGGCUAGACAUGAGGAUCACCCAUGUCAUAACAUGA [Exclusion 6 - B - 15:b] (puzzle: Exclusion 6)”, the “apparent KD of MS2 coat protein” value is 68.7 nM under setting [3], 71.8 nM under setting [1] and 214 nM under setting [4]. Take “UCAUUGGUAGGAUAUACAUGAGGAUCACCCAUGUGUCCGGAGCAGUAUGCUUGAAAACGUAGAAGGACCUAGGA [Eternabot (L1) Solution 15] (Eterna round: R97, puzzle: Exclusion 3)”: the “apparent KD of MS2 coat protein” value is, setting by setting: (input ligand: FMN 200 uM) 45.3 nM; (input ligand: none) 40.4 nM. In the case of “UCCAAACAUGAGGAUCACCCAUGUGAGGAUAUGAUACUAUGUACUUCGGUACAUAGUAUCAGAAGGCACAUCCA [Ex1-3: 10] (puzzle: Exclusion 1)”, the “apparent KD of MS2 coat protein” value under setting [1] turned out to be 13.4 nM.

Take “UCCAACCCUGUGAGGAUAUCGUCCAUUUUUUGUUCCGAGAAGGCACAUGAGGAUCACCCAUGUUUUUUAUUUUU [JR_BMOE4_Sub078] (puzzle: Brourd's mod of Exclusion 4)”: the “apparent KD of MS2 coat protein” value under setting [1] came out at 34.9 nM. On to “UCCCAGUGAGGAUAUACUUAUCGGGUCGGUUAGCGAGGAAAACUUGAGGAUCACCCAAGUAGAAGGCGCAACGU [Isinar] (Eterna round: R97, puzzle: Exclusion 2)”, for which the “apparent KD of MS2 coat protein” value by setting is: (input ligand: FMN 200 uM) 35.1 nM; (input ligand: none) 29.6 nM. Consider “UCCGUACAUGAGGAUCACCCAUGUCAGGAUAUGCAGACCGGCCGCCAGCGACCGGCCCGCAGAAGGGACAUAGA [EX1 B.4] (Eterna round: R97, puzzle: Exclusion 1)”, for which the “apparent KD of MS2 coat protein” value is 140 nM (input ligand: FMN 200 uM) and 30.7 nM (input ligand: none). Turning to “UCCGUACAUGAGGAUCACCCAUGUCAGGAUAUGGCUUUUAGCGUAGACGCGCAAGAGGCCAGAAGGGACUUUUG [Eternabot (L2) Solution 6] (Eterna round: R97, puzzle: Exclusion 1)”, the “apparent KD of MS2 coat protein” value (input ligand: FMN 200 uM) was determined as 30.5 nM and the “apparent KD of MS2 coat protein” value (input ligand: none) is 27.7 nM.
